# “Also recorded” adds a separate entry of the source.
# B1: mHCN2: mouse HCN2 hyperpolarization-activated, cyclic nucleotide-gated channel, wild type (GenBank AJ225122) (protein)
# chain: MDARGGGGRPGDSPGTTPAPGPPPPPPPPAPPQPQPPPAPPPNPTTPSHPESADEPGPRARLCSRDSACTPGAAKGGANGECGRGEPQCSPEGPARGPKVSFSCRGAASGPSAAEEAGSEEAGPAGEPRGSQASFLQRQFGALLQPGVNKFSLRMFGSQKAVEREQERVKSAGAWIIHPYSDFRFYWDFTMLLFMVGNLIIIPVGITFFKDETTAPWIVFNVVSDTFFLMDLVLNFRTGIVIEDNTEIILDPEKIKKKYLRTWFVVDFVSSIPVDYIFLIVEKGIDSEVYKTARALRIVRFTKILSLLRLLRLSRLIRYIHQWEEIFHMTYDLASAVMRICNLISMMLLLCHWDGCLQFLVPMLQDFPSDCWVSINNMVNHSWSELYSFALFKAMSHMLCIGYGRQAPESMTDIWLTMLSMIVGATCYAMFIGHATALIQSLDSSRRQYQEKYKQVEQYMSFHKLPADFRQKIHDYYEHRYQGKMFDEDSILGELNGPLREEIVNFNCRKLVASMPLFANADPNFVTAMLTKLKFEVFQPGDYIIREGTIGKKMYFIQHGVVSVLTKGNKEMKLSDGSYFGEICLLTRGRRTASVRADTYCRLYSLSVDNFNEVLEEYPMMRRAFETVAIDRLDRIGKKNSILLHKVQHDLSSGVFNNQENAIIQEIVKYDREMVQQAELGQRVGLFPPPPPPQVTSAIATLQQAVAMSFCPQVARPLVGPLALGSPRLVRRAPPGPLPPAASPGPPAASPPAAPSSPRAPRTSPYGVPGSPATRVGPALPARRLSRASRPLSASQPSLPHGVPAPSPAASARPASSSTPRLGPAPTARTAAPSPDRRDSASPGAASGLDPLDSARSRLSSNL
# System: Xenopus oocytes
# Assay: Two-microelectrode voltage clamp of mHCN2 and mE324A expressed in Xenopus oocytes
# Type: cell-based, Xenopus laevis
# Method: Oocytes were prepared from mature female Xenopus laevis in accordance with an approved protocol as previously described (Yu et al., 2004).
# For expression of HCN in Xenopus oocytes, oocytes were injected with 5 ng of cRNA made from mouse wild-type mHCN2 and mutant mHCN2 (E324A) plasmids. Injected oocytes were incubated at 18° C. for 24-48 h prior to electrophysiological analysis.
# For measurements in Xenopus oocytes, oocytes were voltage-clamped using a two-microelectrode voltage clamp technique. The extracellular recording solution (OR2) contained (in mM): NaCl, 80; KCl, 2; MgCl2, 1; and Na-HEPES, 5 (pH 7.6). For the recording of steady state activation of expressed Wt mHCN2, currents were elicited by 2-s long hyperpolarizing pulses between −30 mV and −160 mV with 10 mV increments, followed by a 1-s depolarizing pulse to +15 mV. The holding potential was −30 mV. As to the mHCN2 (E324A), currents were elicited by 3-s-long hyperpolarizing pulses between +20 mV and −130 mV with 10 mV increments, followed by a 1 second depolarizing pulse to +50 mV. The holding potential was +20 mV. To construct the current/voltage relationship for wildtype (Wt) mHCN2, the cell was held at […], the current was elicited by a 2-s hyperpolarizing voltage step to −140 mV to saturate activation, and followed by 2-s depolarizing voltage steps between […] and +50 mV in 10 mV increments. For mHCN2 (E324A), the cell was held at +20 mV, current was elicited by a 1.5-s hyperpolarizing voltage step to −110 mV to saturate activation, and then followed by 1.5-s depolarizing voltage steps between −80 mV and +50 mV in 10 mV increments for the recording of tail currents. To record the current amplitudes for Wt mHCN2, the current was evoked by applying a 3-s hyperpolarizing voltage pulse to −120 mV from a holding potential of −30 mV. For mHCN2 (E324A), the current was evoked by applying a 3-s hyperpolarizing voltage pulse to −120 mV from a holding potential of +20 mV.
molecule,measurement,setting,value
B1,voltage at which currents saturated,,around −130 mV
same,slope (s) with cAMP,8-Br-cAMP 1 mM,9.5 mV
same,Vh with cAMP,8-Br-cAMP 1 mM extracellular,−84.9 mV
same,effect of Cs+ on inward current,Cs+ 5 mM,blocked; also recorded: large inhibition
same,"slope (s), control",control,13.9 mV
same,activation more negative than mE324A,oocytes,35 mV
same,"half maximal activation (Vh), control","oocytes, control",−92.7 mV
same,induced current,single voltage pulse to −120 mV,912.7±63.7 nA
